Where a chain is given by its changes, count along the chain named.
T1: CD19 on CD19-positive target cells SU-DHL-10 and Raji (human, UniProt P15391 20-556)
T1 construct: whole, on cells; also called cell surface antigens
T1 sequence (looked up): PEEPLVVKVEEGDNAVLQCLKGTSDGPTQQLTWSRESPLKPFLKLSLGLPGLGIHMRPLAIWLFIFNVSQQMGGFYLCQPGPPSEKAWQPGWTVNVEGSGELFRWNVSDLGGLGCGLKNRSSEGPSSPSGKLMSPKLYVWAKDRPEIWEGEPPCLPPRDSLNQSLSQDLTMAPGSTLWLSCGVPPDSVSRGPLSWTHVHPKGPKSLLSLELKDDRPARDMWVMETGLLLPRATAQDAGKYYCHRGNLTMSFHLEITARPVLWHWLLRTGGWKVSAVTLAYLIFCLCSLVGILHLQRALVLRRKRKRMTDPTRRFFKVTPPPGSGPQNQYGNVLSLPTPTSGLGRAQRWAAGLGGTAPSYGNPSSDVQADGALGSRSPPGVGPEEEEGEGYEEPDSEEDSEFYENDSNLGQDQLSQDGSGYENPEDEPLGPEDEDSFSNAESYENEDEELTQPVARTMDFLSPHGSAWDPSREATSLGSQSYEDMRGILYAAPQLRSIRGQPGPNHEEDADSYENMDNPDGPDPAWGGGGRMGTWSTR

T2: human CD19 antigen (human, UniProt P15391 20-291, limits assumed)
T2 sequence (looked up): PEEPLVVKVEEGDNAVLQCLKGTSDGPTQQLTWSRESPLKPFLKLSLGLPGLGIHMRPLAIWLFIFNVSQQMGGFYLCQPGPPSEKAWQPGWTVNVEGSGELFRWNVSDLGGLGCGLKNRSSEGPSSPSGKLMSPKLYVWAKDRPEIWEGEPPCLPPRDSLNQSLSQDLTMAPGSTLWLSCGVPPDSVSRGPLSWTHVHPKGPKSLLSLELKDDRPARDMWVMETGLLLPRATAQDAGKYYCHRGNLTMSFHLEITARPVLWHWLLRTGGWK

B1: humanized CD19 antibody VH7 + VL6 (antibody, V domains shown)
VH: QVKLQESGPGLVKPSETLSLTCTVSGVSLPDYGVSWIRQPPGKGLEWLGVIWGSETTYYNSALKSRLTISKDTSKNQFSLKLSSVTAADTAVYYCAKHYYYGGSYAMDYWGQGTLVTVSS
VL: DIQMTQSPSSLSASVGDRVTITCRASQDISKYLNWYQQKPGGAVKLLIYHTSRLHSGVPSRFSGSGSGTDYTFTISSLQPEDIATYFCQQGNTLPYTFGGGTKLEIK
B2: humanized CD19 antibody VH8 + VL5 (antibody, V domains shown)
VH: B1 VH with L48I, L67V, N76S, F78V, S79F
VL: B1 VL with T22S, G42K, V44P
B3: humanized CD19 antibody VH8 + VL6 (antibody, V domains shown)
VH: B1 VH with L48I, L67V, N76S, F78V, S79F
VL: B1 VL
B4: humanized CD19 antibody VH10 + VL5 (antibody, V domains shown)
VH: B1 VH with N76S, F78V, S79F
VL: B1 VL with T22S, G42K, V44P
B5: humanized CD19 antibody VH3 + VL2 (antibody, V domains shown)
VH: B1 VH with K3Q, E16Q, L48I, F78V, L115T
VL: B1 VL with G42K, V44P, F87Y
notes: also called Antibody No. 8
B6: humanized CD19 antibody VH1 + VL1 (antibody, V domains shown)
VH: B1 VH with K3Q, E16Q, L48I, L67V, K71V, K97R, L115T
VL: B1 VL with G42K, V44P, Y71F, F87Y
notes: also called Antibody No. 1
B7: humanized CD19 antibody VH1 + VL2 (antibody, V domains shown)
VH: B1 VH with K3Q, E16Q, L48I, L67V, K71V, K97R, L115T
VL: B1 VL with G42K, V44P, F87Y
notes: also called Antibody No. 2
B8: humanized CD19 antibody VH1 + VL3 (antibody, V domains shown)
VH: B1 VH with K3Q, E16Q, L48I, L67V, K71V, K97R, L115T
VL: B1 VL with G42K, V44P, F73L, F87Y
notes: also called Antibody No. 3
B9: humanized CD19 antibody VH2 + VL1 (antibody, V domains shown)
VH: B1 VH with K3Q, E16Q, L48I, L67V, F78V, L115T
VL: B1 VL with G42K, V44P, Y71F, F87Y
notes: also called Antibody No. 4
B10: humanized CD19 antibody VH2 + VL2 (antibody, V domains shown)
VH: B1 VH with K3Q, E16Q, L48I, L67V, F78V, L115T
VL: B1 VL with G42K, V44P, F87Y
notes: also called Antibody No. 5
B11: humanized CD19 antibody VH2 + VL3 (antibody, V domains shown)
VH: B1 VH with K3Q, E16Q, L48I, L67V, F78V, L115T
VL: B1 VL with G42K, V44P, F73L, F87Y
notes: also called Antibody No. 6
B12: humanized CD19 antibody VH3 + VL1 (antibody, V domains shown)
VH: B1 VH with K3Q, E16Q, L48I, F78V, L115T
VL: B1 VL with G42K, V44P, Y71F, F87Y
notes: also called Antibody No. 7
B13: humanized CD19 antibody VH3 + VL3 (antibody, V domains shown)
VH: B1 VH with K3Q, E16Q, L48I, F78V, L115T
VL: B1 VL with G42K, V44P, F73L, F87Y
notes: also called Antibody No. 9
B14: humanized CD19 antibody VH4 + VL1 (antibody, V domains shown)
VH: B1 VH with K3Q, E16Q, F78V, L115T
VL: B1 VL with G42K, V44P, Y71F, F87Y
notes: also called Antibody No. 10
B15: humanized CD19 antibody VH4 + VL2 (antibody, V domains shown)
VH: B1 VH with K3Q, E16Q, F78V, L115T
VL: B1 VL with G42K, V44P, F87Y
notes: also called Antibody No. 11
B16: humanized CD19 antibody VH4 + VL3 (antibody, V domains shown)
VH: B1 VH with K3Q, E16Q, F78V, L115T
VL: B1 VL with G42K, V44P, F73L, F87Y
notes: also called Antibody No. 12
B17: humanized CD19 antibody VH5 + VL1 (antibody, V domains shown)
VH: B1 VH with K3Q, E16Q, L20V, F78V, V85L, L115T
VL: B1 VL with G42K, V44P, Y71F, F87Y
notes: also called Antibody No. 13
B18: humanized CD19 antibody VH5 + VL2 (antibody, V domains shown)
VH: B1 VH with K3Q, E16Q, L20V, F78V, V85L, L115T
VL: B1 VL with G42K, V44P, F87Y
notes: also called Antibody No. 14
B19: humanized CD19 antibody VH5 + VL3 (antibody, V domains shown)
VH: B1 VH with K3Q, E16Q, L20V, F78V, V85L, L115T
VL: B1 VL with G42K, V44P, F73L, F87Y
notes: also called Antibody No. 15
B20: humanized CD19 antibody VH6 + VL4 (antibody, V domains shown)
VH: B1 VH with K3Q, E16Q, L20V, S61A, F78V, V85L, L115T
VL: B1 VL with G42K, V44P, F73L, F87Y, G91A
notes: also called Antibody No. 16
B21: humanized CD19 antibody VH2 + VL6 (antibody, V domains shown)
VH: B1 VH with K3Q, E16Q, L48I, L67V, F78V, L115T
VL: B1 VL
B22: humanized CD19 antibody VH2 + VL7 (antibody, V domains shown)
VH: B1 VH with K3Q, E16Q, L48I, L67V, F78V, L115T
VL: B1 VL with T22S, G41D, A43T, Y71F
B23: humanized CD19 antibody VH4 + VL6 (antibody, V domains shown)
VH: B1 VH with K3Q, E16Q, F78V, L115T
VL: B1 VL
B24: humanized CD19 antibody VH9 + VL5 (antibody, V domains shown)
VH: B1 VH with K3Q, N76S, F78V
VL: B1 VL with T22S, G42K, V44P
notes: also called H9L5

target: T1, CD19 on CD19-positive target cells …; assay: flow cytometry on CD19-positive Raji cells, antibody titrated, fluorescent anti-Fc secondary antibody, percent positive cells (panel 'scFv binding to Raji')
Procedure: (§1) Part of the antibodies in Example 1 were detected for surface binding to CD19-positive target cells SU-DHL-10 and Raji.
(§2) CD19-positive SU-DHL-10 or Raji cell lines were used, and humanized antibodies at different concentrations were used to bind the target cells. After binding, secondary antibodies (fluorescent labeled anti-Fc antibodies) were used for staining. After cleaning the residual antibodies, the positive rate was analyzed by flow cytometry to draw the binding curve of antibodies binding to cell surface antigens.

Binder | EC50 (read off the curve) [µg/mL]
B1 | ~0.03
B2 | ~0.03
B3 | ~0.04
B4 | ~0.03

target: T1, CD19 on CD19-positive target cells …; assay: flow cytometry on CD19-positive SU-DHL-10 cells, antibody titrated, fluorescent anti-Fc secondary antibody, percent positive cells (panel 'scFv binding to SU-DHL-10')
Procedure: as §1, §2

Binder | EC50 (read off the curve) [µg/mL]
B1 | ~0.01
B2 | ~0.01
B3 | ~0.01

target: T2, human CD19 antigen; assay: SPR (Biacore), antibody captured via Fc
Procedure: Part of the antibodies in Example 1 were tested for affinity, and the composition of the heavy chain variable regions and the light chain variable regions of the antibodies to be tested are shown in Table 1.
(§3) HEK293 cells were used to express the antibodies to be tested and Protein A was used for purification. The surface plasmon resonance technique (SPR) was used for determination, and the Fc capture method was used for antibody fixation.

Binder | Kd [nM] | koff [s⁻¹]
B5 | 109 | 0.000638
B6 | 57.6 | 0.00808
B7 | 7.95 | 0.00738
B8 | 40.7 | 0.0794
B9 | 69.8 | 0.000568
B10 | 66.8 | 0.000526
B11 | 44.7 | 0.000395
B12 | 111 | 0.000688
B13 | 15.8 | 0.00159
B14 | 81 | 0.000584
B15 | 89.2 | 0.000605
B16 | 56.1 | 0.000437
B17 | 99.7 | 0.000637
B18 | 14.8 | 0.0018
B19 | 14.2 | 0.00143
B20 | 21000 | 0.00493

target: T2, human CD19 antigen; assay: SPR (Biacore), antibody captured via Fc; remark: another data set of the same source
Procedure: Part of the antibodies in Example 1 were tested for affinity, and the composition of the heavy chain variable regions and the light chain variable regions of the antibodies to be tested are shown in Table 2.
as §3

Binder | Kd [nM] | koff [s⁻¹] | kon [M⁻¹ s⁻¹]
B21 | 6.93 | 0.00124 | 179000
B22 | 6.39 | 0.00116 | 181000
B23 | 9.31 | 0.00121 | 129000
B1 | 4.57 | 0.000592 | 130000
B2 | 3.87 | 0.000602 | 155000
B3 | 3.26 | 0.000383 | 117000
B24 | 1.7 | 0.000186 | 109000
B4 | 1.55 | 0.000182 | 118000

Reference: patent US20230235052A1 (GRACELL BIOTECHNOLOGIES SHANGHAI, published 2023)
